Earlier results, collected in paper PMC3831880.

Target: HPr (Escherichia coli) (UniProt P0AA04)
Assay: PRE titration

**Q.** With “Enzyme I N-terminal domain (EIN) N-terminal domain (from UniProt P08839)” as the substance, how does the Kd read?
**A.** 7 µM
